Experimental data from patent US20070265189A1 (published 2007).

Assays:
[1] = target: human insulin receptor (HIR) (human, UniProt P06213 28-1382, limits assumed); assay: competition with 125I-insulin, solubilised HIR
[2] = target: T1, Soluble IGF-1R (R&D Systems, Cat. # 391-GR/CF) (UniProt P08069 31-935, limits assumed); assay: phage ELISA: IGF-1R ratio over background divided by IR ratio over background
T1 construct: extracellular domain; also called sIGF-1R; IGFR

[3] = target: T1, Soluble IGF-1R (R&D Systems, Cat. # …)
[4] = target: T2, Insulin receptor prepared according to Bass et al., 1996 (human, UniProt P06213 28-956, limits assumed)
T2 construct: extracellular domain; also called IR; soluble IR (Bass construct); not shown: immunoglobulin constant domains (Fc or lambda) of the Bass construct

[5] = target: T2, Insulin receptor prepared according to …; assay: phage ELISA: IR ratio over background divided by IGF-1R ratio over background
[6] = target: T3, Soluble IGF-1R (sIGF-1R), R&D Systems Cat. # 391-GR/CF (UniProt P08069 31-935, limits assumed); assay: phage ELISA
T3 construct: extracellular domain

[7] = target: T4, soluble human insulin receptor-immunoglobulin heavy chain chimera (sIR-Fc; Bass et al., 1996) (human, UniProt P06213 28-956, limits assumed); assay: phage ELISA
T4 construct: extracellular domain; also called soluble IR (Bass construct); not shown: immunoglobulin heavy chain constant domains

| Binder | Kd [1] [nM] | Comparison IGF-1R/IR [2] [ratio] | Ratio over Background, IGF-1R [3] [ratio over background] | Ratio over Background, IR [4] [ratio over background] | Comparison IR/IGF-1R [5] [ratio] | IGF-1R/IR comparison [6] | Ratio over Background [6] | IR/IGF-1R comparison [7] | Ratio over Background [7] |
| --- | --- | --- | --- | --- | --- | --- | --- | --- | --- |
| SLEEEWAQIECEVWGRGCPSGSLDESFYDWFERQL [S560] | 0.014 | – | – | – | – | – | – | – | – |
| DYKDSSETAKMVTGTRDDPFYHKLSELVQGSAAAGAP (not shown: rest of the phage display fusion (remainder of E-Tag, phage coat protein)) [B6Hα-2-D8-IR] | – | 3 | 3 | 1 | 0.3 | – | – | – | – |
| GIISQSCPESFYDWFAGQVSDPWWCW [H2CA-4-G9-IGFR] | – | – | – | – | – | 16 | 9.5 | 0.1 | 0.6 |
| DYKDLSCLAYSRHGIWRPSTDLGLGRSVGEGSVSTRWRGYDWFEAAAGAP (not shown: rest of the phage display fusion (remainder of E-Tag, phage coat protein)) [40F-4-D1-IGFR] | – | 13.1 | 4.6 | 0.3 | 0.1 | – | – | – | – |
| HHHHHHKLDQEWAWVQCEVYGRGCPSESFYDWFERQLG [S481] | 1.3 | – | – | – | – | – | – | – | – |
| RCGRELYHSTFYDWFDRQVAGRTCPS [H2CA-1-A7-IGFR] | – | – | – | – | – | 3.7 | 2.2 | 0.3 | 0.6 |
| DYKDGLDHSDAVGVHLGFAWPAQARGRWEAGGLEDTWAGYDWLAAAGAP (not shown: rest of the phage display fusion (remainder of E-Tag, phage coat protein)) [40F-4-B1-IGFR] | – | 13.1 | 3 | 0.2 | 0.1 | – | – | – | – |
| DYKDAETSAQVGWQRLWSVWPGDHWSTLDPFYHKLSELLRESGAAAAGAP (not shown: rest of the phage display fusion (remainder of E-Tag, phage coat protein)) [B6L-3-G5-IR] | – | 1.4 | 2 | 1.4 | 0.7 | – | – | – | – |
| TLDGGSFEEQFYDWFVRQLSYRTNPD [H2CA-4-G11-IGFR] | – | – | – | – | – | 3.9 | 9.5 | 0.3 | 2.5 |
| DYKDCGAKMTGTPNDPFYHKLSELLQRGAAAGAP (not shown: rest of the phage display fusion (remainder of E-Tag, phage coat protein)) [B6Hα-3-E6-IR] | – | 1.9 | 2.3 | 1.2 | 0.5 | – | – | – | – |
| SLEEEWAQVECEVYGRGCPSGSLDESFYHWFERQLG [S542] | 0.027 | – | – | – | – | – | – | – | – |
| DYKDGCITAENGAGDPFYHKLSELGGCSAAAGAP (not shown: rest of the phage display fusion (remainder of E-Tag, phage coat protein)) [B6Hα-1-B3-IR] | – | 2.9 | 3.2 | 1.1 | 0.3 | – | – | – | – |
| APDPSDFQEIFYDWFVRQVSRMPGGG [H2CA-1-A3-IGFR] | – | – | – | – | – | 5.1 | 3.8 | 0.2 | 0.8 |
| DYKDSRVAATKEKRPSDDPFYHKLSELLQGSAAAGAP (not shown: rest of the phage display fusion (remainder of E-Tag, phage coat protein)) [B6Hα-3-F7-IR] | – | 3.1 | 3.1 | 1 | 0.3 | – | – | – | – |
| SSCDGAGHESFYEWFVRQVSGCRSV [H2CA-3-C8-IGFR] | – | – | – | – | – | 4.8 | 5.6 | 0.2 | 1.2 |
| SIEEEWAQIKCDVWGRGCPSESFYDWFERQL [S517] | 0.006 | – | – | – | – | – | – | – | – |
| QSPVGSSHEDFYDWFFRQVAQSGAHQ [H2CA-3-D6-IGFR] | – | – | – | – | – | 4 | 9 | 0.3 | 2.2 |
| CCLLCRFQQNFYDWFVCQGISRLRPL [H2CA-2-B4-IGFR] | – | – | – | – | – | 3.6 | 4.1 | 0.3 | 1.1 |
| GFREGNFYEWFQAQVT [E4Dα-4-H2-IR] | – | – | – | – | – | 4.1 | 33.9 | 0.2 | 8.2 |

| Binder | Kd [1] [nM] | Comparison IGF-1R/IR [2] [ratio] | Ratio over Background, IGF-1R [3] [ratio over background] | Ratio over Background, IR [4] [ratio over background] | Comparison IR/IGF-1R [5] [ratio] | IGF-1R/IR comparison [6] | Ratio over Background [6] | IR/IGF-1R comparison [7] | Ratio over Background [7] |
| --- | --- | --- | --- | --- | --- | --- | --- | --- | --- |
| QAVQPGFHEEFYDWFVRQVSTGVGGG [H2CA-4-H4-IGFR] | – | – | – | – | – | 4.2 | 4.1 | 0.2 | 1 |
| FYVQQWGHENFYDWFDRQVSQSGGAG [H2CA-4-F1-IGFR] | – | – | – | – | – | 3.8 | 3.5 | 0.3 | 0.9 |
| DYKDCSMAAVAEAGDDDDPFYHKLSELCQGSAAAGAP (not shown: rest of the phage display fusion (remainder of E-Tag, phage coat protein)) [B6Hα-3-F1-IR] | – | 1.8 | 2.4 | 1.3 | 0.5 | – | – | – | – |
| GSLDESFYDWFERQLGXK (as printed: Ac-GSLDESFYDWFERQLG-POX-K; N-terminal acetyl; POX between G and the C-terminal K, POX is not explained) [S550] | 40 | – | – | – | – | – | – | – | – |
| SSIGGGFHENFYDWFSRQLSQSPPLK [H2CA-4-F7-IGFR] | – | – | – | – | – | 4.1 | 3.2 | 0.2 | 0.8 |
| PPLASDLDVQFYGWFVQQVSPPGRGG [H2CA-2-B3-IGFR] | – | – | – | – | – | 3.6 | 3.8 | 0.3 | 1 |
| SLEEEWAQVECEVYGRGCPSESFYDWFVRQLG [S555] | 0.057 | – | – | – | – | – | – | – | – |
| RAGSSDFHEDFYEWFVRQVSLSLKGK [H2CA-2-B9-IGFR] | – | – | – | – | – | 4.2 | 7 | 0.2 | 1.7 |
| DYKDAGSVTSFYDAMEQLVATGTSAAAAGAP (not shown: rest of the phage display fusion (remainder of E-Tag, phage coat protein)) [20E2A-3-A4-IGFR] | – | 1.4 | 2.5 | 1.8 | 0.7 | – | – | – | – |
| DYKDMNVFVSFYDAIDQLVCQRIGCAAAGAP (not shown: rest of the phage display fusion (remainder of E-Tag, phage coat protein)) [20E2A-4-G11-IGFR] | – | 2.6 | 3.3 | 1.3 | 0.4 | – | – | – | – |
| DYKDGHYFGSFYDAIDQLVAGMLPGAAAGAP (not shown: rest of the phage display fusion (remainder of E-Tag, phage coat protein)) [20E2A-3-A3-IGFR] | – | 1.9 | 3 | 1.5 | 0.5 | – | – | – | – |
| DYKDRCGDEEGWQENRRDDPFYHKLSELFGGCAAAGAP (not shown: rest of the phage display fusion (remainder of E-Tag, phage coat protein)) [B6Hα-3-E5-IR] | – | 2.9 | 2.9 | 1 | 0.3 | – | – | – | – |
| LDQEWAWVQSEVYGRGSPSESFYDWFERQL [S509] | 5.7 | – | – | – | – | – | – | – | – |
| LRRQAPVEENFYDWFVRQVSGDRVGG [H2CA-3-D7-IGFR] | – | – | – | – | – | 3.7 | 3 | 0.3 | 0.8 |
| DYKDQSGSGDFYDWLSRLIRGNGDGAAAGAP (not shown: rest of the phage display fusion (remainder of E-Tag, phage coat protein)) [20E2Bβ-3-C7-IR] | – | 2 | 3.1 | 1.5 | 0.5 | – | – | – | – |
| DYKDVRGFQGGTVWPGYEWLRNAAAAAGAP (not shown: rest of the phage display fusion (remainder of E-Tag, phage coat protein)) [R20β-4-E8-IR] | – | 9.7 | 34.9 | 3.6 | 0.1 | – | – | – | – |
| NYRRQVFNGNFYDWFDRQVFSLVTPG [H2CA-3-D8-IGFR] | – | – | – | – | – | 4 | 7.2 | 0.3 | 1.8 |
| SRAKVEAEMPDSGDPFYHKLSELLASG [B6Hα-1-A3-IR] | – | – | – | – | – | 3.3 | 2.6 | 0.3 | 0.8 |
